# Test results as given in patent US9926369B2, “Methods for treating hepatocellular cancer by administering an anti-Ang-2 antibody” (Regeneron Pharmaceuticals, Inc., priority 2009, dated 2018).
# How the values were obtained:
# [1] = biological target: biotin-hBA2 binding to hTie-2 (Homo sapiens, UniProt O15123); test: ELISA blocking of biotinylated hBA2 binding to hTie-2-His; format: biochemical; conditions: 20 pM biotinylated hBA2; average of two separate experiments; read-out: Biotin - hBA2 Average IC50
# Sequence of biotin-hBA2 binding to hTie-2 (O15123 with tags, fused parts or gaps): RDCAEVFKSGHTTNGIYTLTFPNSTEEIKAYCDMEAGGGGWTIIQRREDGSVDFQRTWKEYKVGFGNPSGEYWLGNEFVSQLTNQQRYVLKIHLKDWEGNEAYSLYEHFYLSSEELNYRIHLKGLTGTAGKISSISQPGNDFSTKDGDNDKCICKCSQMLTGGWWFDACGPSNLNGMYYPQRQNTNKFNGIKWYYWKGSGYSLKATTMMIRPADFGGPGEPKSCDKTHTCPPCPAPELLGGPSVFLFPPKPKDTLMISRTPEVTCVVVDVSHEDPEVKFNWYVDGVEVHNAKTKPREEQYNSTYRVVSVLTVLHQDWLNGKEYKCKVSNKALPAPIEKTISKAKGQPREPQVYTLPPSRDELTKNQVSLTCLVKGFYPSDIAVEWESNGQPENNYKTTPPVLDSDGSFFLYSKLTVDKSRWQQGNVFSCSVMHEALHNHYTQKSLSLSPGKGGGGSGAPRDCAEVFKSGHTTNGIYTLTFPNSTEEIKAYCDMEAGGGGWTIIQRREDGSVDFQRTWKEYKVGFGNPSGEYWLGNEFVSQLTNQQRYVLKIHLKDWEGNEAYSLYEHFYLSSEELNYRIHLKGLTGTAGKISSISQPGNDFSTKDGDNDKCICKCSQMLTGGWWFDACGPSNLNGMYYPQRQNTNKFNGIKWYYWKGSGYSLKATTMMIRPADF
# Method: For this experiment, human Tie-2 conjugated to a histidine tag (hTie-2-His; SEQ ID NO:526) was used in a similar fashion to the hTie-2-mFc described above. Antibody concentrations from 5 nM were serially diluted three-fold. […] An average IC50 value for each antibody was calculated based on two separate experiments.
# [2] = test system: Tie-2 phosphorylation (Ang-2-mediated) in HUVECs; test: Inhibition of Ang-2-mediated Tie-2 phosphorylation in FOXO1-adenovirus infected HUVECs; format: cell-based, human; conditions: antibody 0.5 μg/ml
# Method: Further, the inventors have shown that infection of HUVECs with an adenovirus encoding FOXO1 results in expression and secretion of Ang-2, followed by activation of Tie-2 phosphorylation (Daly et al. 2006 PNAS 103:15491).
# Anti-Ang-2 antibodies were tested for their ability to inhibit Tie-2 phosphorylation. Briefly, 7×10^5 HUVECs (Vec Technologies, Rensselaer, N.Y.) were plated in 6 cm cell culture dishes in 3.5 ml of MCDB131 Complete medium (Vec Technologies, Rensselaer, N.Y.). The following day, the cells were washed with Opti-MEM (Invitrogen Corp., Carlsbad, Calif.) and fed with 2 ml of Opti-MEM. […] Cells were then washed with MCDB131 and fed with 2 ml of MCDB131 containing anti-Ang-2 antibodies at a concentration of 0.5 μg/ml. At twenty hours post infection, cells were lysed and subjected to Tie-2 immunoprecipitation as described by Daly et al., Proc. Natl. Acad. Sci. USA 103:15491-15496 (2006). Immunoglobulin was collected on protein A/G beads (Santa Cruz Biotechnology, Santa Cruz, Calif.) for one hour. Beads were washed with cold lysis buffer and resuspended in SDS sample buffer for analysis by western blot with antibodies specific for phosphotyrosine (Millipore, Billerica, Mass.) or Tie-2. Signals were detected using HRP-conjugated secondary antibodies and ECL reagents (GE Healthcare, Piscataway, N.J.). X-Ray films were scanned and the phospho-Tie-2 and Tie-2 signals were quantified using ImageJ software. The phospho-Tie-2/Tie-2 ratios were used to determine the % inhibition for each anti-Ang-2 antibody (i.e. Percent inhibition=Reduction in phospho-Tie-2/Tie-2 as compared to control).
molecule,measurement,setting,value
"H1M728N: anti-Ang-2 antibody, HCVR/LCVR SEQ ID NOs 290/298 (antibody, V domains shown) VH: EVQLVESGGDLVQPGGSLRLSCTASGFTFSKYWMTWVRQAPGRGLEWVANIKEDGNEKYFLDSVKGRFTISRDNAKDLLFLQMNSLRGEDTAVYYCVRDRGIEVAGPFDYWGQGTLVTVSS VL: DIQMTQSPSTLSASVGDRVTVTCRASQTIINWLAWYQQKPGKAPKLLISKASSLESGVPSRFSGSGSGTEFTLTISSLQPDDFATYYCQQYNRYWTFGQGTMVEIK",IC50,[1],0.0141 nM
same,Inhibition of Tie-2 phosphorylation,[2],++ (50-75%)
